This is an account of results in publication PMC8809517, “Cofactor-independent RNA editing by a synthetic S-type PPR protein”.

Positions count from the first letter of the chain named.

Holding throughout (experiment): high-throughput RNA pulldown from lysate on Ni-NTA beads; HRP: 50 mM Tris pH 8, 150 mM NaCl, 1 mM beta-mercaptoethanol, 50 ug/ml BSA, 3 ug/ml yeast RNA, 0.5% heparin; ITC and FP: Tris pH 8, 200 mM KCl, 5% glycerol; MST: 50 mM Tris pH 8, 200 mM NaCl, 1 mM DTT, BSA, heparin, 0.05% Tween 20
What all share (conditions): tags: N-terminal His-eGFP

Series [1] concerns the target T1, GFP-9S library array, motif 4 ND D124M (synthetic construct, D124M).
T1 chain: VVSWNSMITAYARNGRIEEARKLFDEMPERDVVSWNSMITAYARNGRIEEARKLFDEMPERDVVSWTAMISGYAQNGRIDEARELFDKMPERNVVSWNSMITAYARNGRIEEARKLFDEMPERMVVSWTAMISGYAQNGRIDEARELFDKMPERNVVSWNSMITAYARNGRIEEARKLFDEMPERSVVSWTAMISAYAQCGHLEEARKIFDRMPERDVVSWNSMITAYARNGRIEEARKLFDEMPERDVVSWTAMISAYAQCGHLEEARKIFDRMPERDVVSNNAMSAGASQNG

Series [2] concerns the target T2, GFP-9S library array, motif 4 ND D124Q (synthetic construct, D124Q).
T2 chain: T1 chain with M124Q

Series [3] deals with T3, GFP-9S library array, motif 4 ND N98R;D124R (synthetic construct, N98R;D124R).
T3 chain: T1 chain with N98R, M124R

For series [4], the target named is T4, GFP-9S library array, motif 4 ND N98F;D124H (synthetic construct, N98F;D124H).
T4 chain: T1 chain with N98F, M124H

Series [5] has as its target T5, GFP-9S library array, motif 4 ND N98D;D124E (synthetic construct, N98D;D124E).
T5 chain: T1 chain with N98D, M124E

By Kd is commonly meant the free concentration of one partner at which half of the binding sites on the other are occupied at equilibrium, for simple one-to-one binding. A high value points to lower affinity. Regarding AUUAUACGUGA (ssRNA) [IR-rpoA-U], the Kd in series [1] (label: 5' IRDye 800CW) is 21.2 nM; in series [2] (label: 5' IRDye 800CW), 25.9 nM; in series [3] (label: 5' IRDye 800CW), 97.9 nM; in series [4] (label: 5' IRDye 800CW), 138 nM; in series [5] (label: 5' IRDye 800CW), 283 nM.
AUUACACGUGA (ssRNA) [Cy5-rpoA]: the Kd in series [1] (label: 5' Cy5) worked out at 71.1 nM; in series [2] (label: 5' Cy5), 68 nM; in series [3] (label: 5' Cy5), 97.6 nM; in series [4] (label: 5' Cy5), 73.4 nM; in series [5] (label: 5' Cy5), 124 nM.
Consider AUUAAACGUGA (ssRNA) [IR-rpoA-A], for which the Kd was determined as 78.1 nM in series [1] (label: 5' IRDye 800CW); 490 nM in series [2] (label: 5' IRDye 800CW); 82 nM in series [3] (label: 5' IRDye 800CW); 188 nM in series [4] (label: 5' IRDye 800CW); 343 nM in series [5] (label: 5' IRDye 800CW).
Consider AUUAGACGUGA (ssRNA) [Cy5-rpoA-G], for which the Kd in series [1] (label: 5' Cy5) was 139 nM; in series [2] (label: 5' Cy5), 898 nM; in series [3] (label: 5' Cy5) it was 53.3 nM; in series [4] (label: 5' Cy5), 84.9 nM; in series [5] (label: 5' Cy5), 95.2 nM.
